Measurements as given in publication PMC5036006.

Tests used:
Test in all cases: co-immunoprecipitation from transfected HEK293T
Details in all cases: reference: wild-type parafibromin; sites Y290,Y293,Y315
Gli1 = Gli1 (UniProt P08151)
β-catenin = β-catenin (UniProt P35222)
[1] = target: Notch intracellular domain (NICD) intracellular domain, 1744-2183 (UniProt Q01705)

Measured: binding against the reference

parafibromin (from UniProt Q6P1J9) PR-parafibromin Y290/293/315F
stronger: all assays above
